From article PMC11464762, “AXIN1 boosts antiviral response through IRF3 stabilization and induced phase separation” (Signal Transduction and Targeted Therapy, 2024)

Molecular target: T1, GST-IRF3-IR (GST-tagged IRF3 IR domain) (GST carrier left out. Limits are not printed: the paired constructs IRF3-DP and IRF3-IR are read as DBD + proline-rich region and IAD + C-terminal regulatory (response) region. The IR start at about r)
T1 chain: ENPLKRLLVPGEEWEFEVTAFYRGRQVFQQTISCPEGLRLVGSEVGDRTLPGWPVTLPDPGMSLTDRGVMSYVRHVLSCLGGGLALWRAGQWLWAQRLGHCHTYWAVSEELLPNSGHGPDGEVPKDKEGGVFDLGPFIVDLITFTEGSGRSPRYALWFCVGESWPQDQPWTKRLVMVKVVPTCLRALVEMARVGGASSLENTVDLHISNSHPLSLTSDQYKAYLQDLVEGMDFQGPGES
Assay: ELISA; cell-free; purified GST-IRF3-IR and His-AXIN1-RGS (n = 3); which one was coated is not told
Details: both partners purified

B1: His-AXIN1-RGS (His-tagged AXIN1 RGS domain) (domain or fragment, UniProt O15169 88-211, looked up)
chain: SLHSLLDDQDGISLFRTFLKQEGCADLLDFWFACTGFRKLEPCDSNEEKRLKLARAIYRKYILDNNGIVSRQTKPATKSFIKGCIMKQLIDPAMFDQAQTEIQATMEENTYPSFLKSDIYLEYT
notes: RGS domain of AXIN1; source: purified
With B1 the EC50 was 1.72 nM.
